Columns and labels:
NFAT-luc2 Jurkat cells = assay: Lenalidomide-induced degradation of anti-BCMA CAR constructs transfected in Jurkat cells (flow cytometry, BCMA-Fc staining); format: cell-based; conditions: 10 μM lenalidomide vs DMSO, 24 hour, FIG. 5
Protocol: NFAT-luc2 Jurkat cells (Promega) to a density of 2×10^5 cells/ml were cultured in RPMI medium 1640 (1×) without L-glutamine with phenol red (Gibco), 10% (v/v) Fetal Bovine Serum (FBS) Heat-Inactivated (Gibco), 1% (v/v) Minimum essential medium non-essential amino acids (MEM NEAA) (ThermoFisher), 1% (v/v) Sodium Pyruvate (Sigma), 1% (v/v) L-Glutamine (Gibco). 20 μg of plasmid DNA was mixed with 8×10^6 NFAT-luc2 Jurkat cells and cells were transfected using the 4D-Nucleofector (Lonza) with cell Line SE Nucleofector kit (Lonza) by following manufacturer instructions with program CL-120. Cells were incubated at 37° C. with 5% CO2 for 48 h. Lenalidomide at a stock concentration of 10 mM in 100% DMSO was diluted in Jurkat media to achieve a stock concentration of 250 μM. Using the 250 μM stock, NFAT-luc2 Jurkat cells were incubated at a final compound concentration of 10 μM or 0 μM (DMSO in media) for 24 hour at 37° C. with 5% CO2. Final DMSO concentration was 0.1% in all wells. Cells were then stained with AlexaFluor 647 conjugated BCMA-Fc to label the anti-BCMA CAR. Measurements were made using a Cytoflex S (Beckman Coulter) and data analysed using FlowJo.

[1] = test system: primary T-cells co-cultured with ARH-77-10B5 cells; assay: Cytokine release from CAR-transduced primary T-cells co-cultured with BCMA-expressing ARH-77-10B5 cells, with or without lenalidomide (MSD V-plex); format: cell-based, human; conditions: 10 μM lenalidomide compared with no lenalidomide treatment; after antigen presentation, 24 h co-culture 1:1 with ARH-77-10B5; FIG. 7
Protocol: For lentiviral vector production, 3.0×10^7 LentiX 293T (HEK 293T) cells were seeded in 20 mL DMEM (Gibco) and were incubated overnight at 37° C. with 5% CO2. LentiX cells were transfected by mixing, for example, 21 μg of transfer vector containing the construct, 3.75 μg ViraSafe pRSV-Rev, 5.25 μg ViraSafe pCMV-VSVG, 7.5 μg ViraSafe pCgp V-(gag-pol), 75 μg jetPRIME (Polyplus) and […] jetPRIME Buffer (Polyplus). After 2 days, supernatants were clarified and virus was concentrated and purified by ultracentrifugation on a 20% sucrose cushion using Ultrapure sucrose (ThermoFisher) in 50 ml Oak Ridge PPCO ultracentrifugation tubes (ThermoFisher). Lentiviral vectors were produced for CONSTRUCT 4 and CONSTRUCT 5 using the method described above. […]
7 days after transduction, lenalidomide at a stock concentration of 10 mM in 100% DMSO was diluted in TEXMacs media to achieve a stock concentration of 250 μM, and 5×10^4 T-cells were incubated at a final compound concentration of 10 μM or 0 μM (DMSO in media) for 16 h at 37° C. with 5% CO2. […] Supernatants were analysed for cytokine levels using MSD V-plex Proinflammatory Panel 1 Human Kit (MSD) and MSD Sector Imager (MSD).

B1: CONSTRUCT 4: conventional anti-BCMA CAR: scFv, CD8a hinge and transmembrane, 4-1BB co-stimulatory, CD3 intracellular domains; no degron (control) (protein)
chain: MALPVTALLLPLALLLHAARPQVQLVQSGAEVKKPGSSVKVSCKGSGYTFTNYWMHWVRQAPGQGLEWIGATYRGHSDTYYNQKFKGRATLTADTSTSTAYMELSSLRSEDTAVYYCTRGAIYDGYDVLDNWGQGTLVTVSSGGGGSGGGGSGGGGSGGGGSDIQMTQSPSSLSASVGDRVTITCSASQDISNYLNWYQQKPGKAPKLLIYYTSNLHSGVPSRFSGSGSGTDFTLTISSLQPEDFATYYCQQYRKLPWTFGQGTKLEIKRFVPVFLPAKPTTTPAPRPPTPAPTIASQPLSLRPEACRPAAGGAVHTRGLDFACDIYIWAPLAGTCGVLLLSLVITLYCNHRNKRGRKKLLYIFKQPFMRPVQTTQEEDGCSCRFPEEEEGGCELRVKFSRSADAPAYQQGQNQLYNELNLGRREEYDVLDKRRGRDPEMGGKPRRKNPQEGLYNELQKDKMAEAYSEIGMKGERRRGKGHDGLYQGLSTATKDTYDALHMQALPPR
modifications: Construct 4 Amino Acid Sequence
expression level of CAR molecules on the surface of Jurkat cells (NFAT-luc2 Jurkat cells): unaffected | TNFα, IL2 and IFN-γ levels in T-cell supernatants [1]: increased levels of cytokines concentrations

From patent publication US11427643B2, “Targeted protein degradation” (GLAXOSMITHKLINE INTELLECTUAL PROPERTY DEVELOPMENT LIMITED, priority 2017, dated 2022)
